Source: paper doi:10.1101/2021.11.04.467245 (bioRxiv, 2021)

T1: TwinStrep-BICD2 WT (mouse), Q921C5
T1 chain: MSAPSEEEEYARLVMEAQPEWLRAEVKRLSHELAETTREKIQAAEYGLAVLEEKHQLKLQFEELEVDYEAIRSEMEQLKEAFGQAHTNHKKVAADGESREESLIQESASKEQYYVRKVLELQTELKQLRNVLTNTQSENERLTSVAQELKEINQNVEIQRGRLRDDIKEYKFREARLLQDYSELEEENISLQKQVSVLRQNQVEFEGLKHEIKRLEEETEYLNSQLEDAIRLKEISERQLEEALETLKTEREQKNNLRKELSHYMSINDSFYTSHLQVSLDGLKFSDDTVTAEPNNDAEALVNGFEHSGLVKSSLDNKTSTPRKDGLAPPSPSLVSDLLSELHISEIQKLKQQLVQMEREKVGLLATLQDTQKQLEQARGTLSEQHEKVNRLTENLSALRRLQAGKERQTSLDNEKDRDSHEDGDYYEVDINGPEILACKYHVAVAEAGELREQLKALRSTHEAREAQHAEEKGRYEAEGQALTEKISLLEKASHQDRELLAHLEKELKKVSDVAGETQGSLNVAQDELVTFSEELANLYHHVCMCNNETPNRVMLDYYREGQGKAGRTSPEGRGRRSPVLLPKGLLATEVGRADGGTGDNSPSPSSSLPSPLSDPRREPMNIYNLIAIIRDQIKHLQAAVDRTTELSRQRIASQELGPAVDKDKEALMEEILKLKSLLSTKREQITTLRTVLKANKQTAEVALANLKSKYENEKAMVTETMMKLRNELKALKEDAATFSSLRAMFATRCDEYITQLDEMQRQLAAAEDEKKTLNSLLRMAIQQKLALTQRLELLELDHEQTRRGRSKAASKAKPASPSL


Experiments:
[1] = molecular target: T1, TwinStrep-BICD2 WT (mouse), Q921C5; assay: SEC-MALS; details: remark: other sources report otherwise
SEC-MALS = molecular target: the molecule itself; assay: SEC-MALS

| stoichiometry N [1] | Binder | stoichiometry N (SEC-MALS) |
| --- | --- | --- |
| 2 | TwinStrep-BICD2 WT, Q921C5 1-820 (natural protein) MSAPSEEEEYARLVMEAQPEWLRAEVKRLSHELAETTREKIQAAEYGLAVLEEKHQLKLQFEELEVDYEAIRSEMEQLKEAFGQAHTNHKKVAADGESREESLIQESASKEQYYVRKVLELQTELKQLRNVLTNTQSENERLTSVAQELKEINQNVEIQRGRLRDDIKEYKFREARLLQDYSELEEENISLQKQVSVLRQNQVEFEGLKHEIKRLEEETEYLNSQLEDAIRLKEISERQLEEALETLKTEREQKNNLRKELSHYMSINDSFYTSHLQVSLDGLKFSDDTVTAEPNNDAEALVNGFEHSGLVKSSLDNKTSTPRKDGLAPPSPSLVSDLLSELHISEIQKLKQQLVQMEREKVGLLATLQDTQKQLEQARGTLSEQHEKVNRLTENLSALRRLQAGKERQTSLDNEKDRDSHEDGDYYEVDINGPEILACKYHVAVAEAGELREQLKALRSTHEAREAQHAEEKGRYEAEGQALTEKISLLEKASHQDRELLAHLEKELKKVSDVAGETQGSLNVAQDELVTFSEELANLYHHVCMCNNETPNRVMLDYYREGQGKAGRTSPEGRGRRSPVLLPKGLLATEVGRADGGTGDNSPSPSSSLPSPLSDPRREPMNIYNLIAIIRDQIKHLQAAVDRTTELSRQRIASQELGPAVDKDKEALMEEILKLKSLLSTKREQITTLRTVLKANKQTAEVALANLKSKYENEKAMVTETMMKLRNELKALKEDAATFSSLRAMFATRCDEYITQLDEMQRQLAAAEDEKKTLNSLLRMAIQQKLALTQRLELLELDHEQTRRGRSKAASKAKPASPSL |  |
|  | TwinStrep-BICD2 S102D (natural protein) MSAPSEEEEYARLVMEAQPEWLRAEVKRLSHELAETTREKIQAAEYGLAVLEEKHQLKLQFEELEVDYEAIRSEMEQLKEAFGQAHTNHKKVAADGESREEDLIQESASKEQYYVRKVLELQTELKQLRNVLTNTQSENERLTSVAQELKEINQNVEIQRGRLRDDIKEYKFREARLLQDYSELEEENISLQKQVSVLRQNQVEFEGLKHEIKRLEEETEYLNSQLEDAIRLKEISERQLEEALETLKTEREQKNNLRKELSHYMSINDSFYTSHLQVSLDGLKFSDDTVTAEPNNDAEALVNGFEHSGLVKSSLDNKTSTPRKDGLAPPSPSLVSDLLSELHISEIQKLKQQLVQMEREKVGLLATLQDTQKQLEQARGTLSEQHEKVNRLTENLSALRRLQAGKERQTSLDNEKDRDSHEDGDYYEVDINGPEILACKYHVAVAEAGELREQLKALRSTHEAREAQHAEEKGRYEAEGQALTEKISLLEKASHQDRELLAHLEKELKKVSDVAGETQGSLNVAQDELVTFSEELANLYHHVCMCNNETPNRVMLDYYREGQGKAGRTSPEGRGRRSPVLLPKGLLATEVGRADGGTGDNSPSPSSSLPSPLSDPRREPMNIYNLIAIIRDQIKHLQAAVDRTTELSRQRIASQELGPAVDKDKEALMEEILKLKSLLSTKREQITTLRTVLKANKQTAEVALANLKSKYENEKAMVTETMMKLRNELKALKEDAATFSSLRAMFATRCDEYITQLDEMQRQLAAAEDEKKTLNSLLRMAIQQKLALTQRLELLELDHEQTRRGRSKAASKAKPASPSL | 2 |
